The text below walks through data of doi:10.1101/594168, “Pat1 activates late steps in mRNA decay by multiple mechanisms” (bioRxiv, 2019).

B1: MBP-Pat1 296-431 (domain or fragment, S. pombe, UniProt O42958 296-431, looked up)
chain: LDEKRQKLERDHMLMAQCAGLMTRSDKSFIARIQISQLMSEDPESDDFYYRVYSIIRGRKPSEEEASHFIQTYLGPSNNRRRGRRSENPMQKLQQQLQRLVSSAKERPKATQLSLEGALGKIAVNTVRTPRQLLNV
notes: also called construct containing most of the middle domain of Pat1; source: E. coli BL21(DE3)*, purified (Ni-NTA, SEC); not shown: His6, N-terminal, kept; MBP, N-terminal, kept
B2: MBP-PatMC (Pat1 residues 296-754) (domain or fragment, S. pombe, UniProt O42958 296-754, looked up)
chain: LDEKRQKLERDHMLMAQCAGLMTRSDKSFIARIQISQLMSEDPESDDFYYRVYSIIRGRKPSEEEASHFIQTYLGPSNNRRRGRRSENPMQKLQQQLQRLVSSAKERPKATQLSLEGALGKIAVNTVRTPRQLLNVKRPTEPASSNSSLNNFSGFSTKKDVLHAIEKVYDLLLDFEQALRKASTLETTDQEQIDTWKTTLSEKLESIWKALYINESLEASSKTRPPFISIISHPKGMRLLPRLFPHLSKEQQISILKVVVYNFDSLDIVLRGTFDVNGELPLDVVSEMSSFTQFIIPPLLTIVNELDLETINNLFSQLLNRTNAVYLIQTKIGLSFLTLFISRAEILKQSGTVNQNEKEEWENTFNVMFNRVKGHFSTVFPPPNARAYADESYPWEFLAACATAASSEQHFTLVSETRDRVLDNIITSKRAPSEIAVVRISNVNLFLNAMGLDARQLSA
notes: The MBP tag was not removed from constructs that contain the middle domain; also called SpPatMC; H6MBP-PatMC; source: E. coli BL21(DE3)*, purified (Ni-NTA, SEC); not shown: His6, N-terminal, kept; MBP, N-terminal, kept
B3: MBP-PatMC L457A/E461K (domain or fragment, S. pombe, UniProt O42958 296-754, looked up)
chain: B2 chain with L162A, E166K
notes: also called SpPatMC L457A/E461K; Mut; source: E. coli BL21(DE3)*, purified (Ni-NTA, SEC); not shown: His6, N-terminal, kept; MBP, N-terminal, kept
B4: MBP-Pat1 317-754 (domain or fragment, S. pombe, UniProt O42958 317-754, looked up)
chain: MTRSDKSFIARIQISQLMSEDPESDDFYYRVYSIIRGRKPSEEEASHFIQTYLGPSNNRRRGRRSENPMQKLQQQLQRLVSSAKERPKATQLSLEGALGKIAVNTVRTPRQLLNVKRPTEPASSNSSLNNFSGFSTKKDVLHAIEKVYDLLLDFEQALRKASTLETTDQEQIDTWKTTLSEKLESIWKALYINESLEASSKTRPPFISIISHPKGMRLLPRLFPHLSKEQQISILKVVVYNFDSLDIVLRGTFDVNGELPLDVVSEMSSFTQFIIPPLLTIVNELDLETINNLFSQLLNRTNAVYLIQTKIGLSFLTLFISRAEILKQSGTVNQNEKEEWENTFNVMFNRVKGHFSTVFPPPNARAYADESYPWEFLAACATAASSEQHFTLVSETRDRVLDNIITSKRAPSEIAVVRISNVNLFLNAMGLDARQLSA
notes: also called PatMC lacking the LAR; source: E. coli BL21(DE3)*, purified (Ni-NTA, SEC); not shown: His6, N-terminal, kept; MBP, N-terminal, kept

Where a chain is given by its changes, count along the chain named. Names and notes keep the numbering of the source.

The target of the experiment is T1, Lsm1-7 complex (S. pombe, UniProt P87173 1-140; O94408 1-96; Q9Y7M4 1-93; O14352 1-121; O42978 1-80; Q9UUI1 1-75; …).
T1 construct: Lsm1, S. pombe; Lsm2, S. pombe; Lsm3, S. pombe; Lsm4, S. pombe; Lsm5, S. pombe; Lsm6, S. pombe; Lsm7, S. pombe; Heteroheptameric ring formed beforehand; the His6-TEV tag stood on the N-terminus of Lsm1 and was cleaved with TEV protease; also called Lsm1-7 ring; source: E. coli BL21(DE3)*, co-expressed from a polycistronic gene, purified (Ni-NTA, heparin, SEC); not shown: His6, N-terminal, …
Briefly: pull-down; 10 µM MBP-tagged Pat1 construct and 10 µM Lsm1-7 mixed 15 min at room temperature, bound to amylose beads, washed four times, eluted with 10 mM maltose; SEC buffer (20 mM HEPES pH 7, 150 mM NaCl, 1 mM DTT); SDS-PAGE, Instant Blue stain. To be noted: both partners purified.
Turning to B1, the binding result is listed as “binds”.

In the case of B2, the binding result is reported as “binds”. As to B3, the binding result is “binds”. The entry for B4 is “binds”.
